Results on one molecule are retold here after patent publication US20040127419A1 (Amgen, published 2004).

In the assay the target is T1, mature human glial cell line-derived neurotrophic factor (hGDNF), CHO cell-expressed (human, UniProt P39905 78-211, glycosylated (N-linked sugar, about 4.5 kDa)).
T1 construct: The native protein is a disulfide-bonded homodimer (44 kDa on non-reducing gels); also called mature GDNF; 22 kDa band
T1 chain: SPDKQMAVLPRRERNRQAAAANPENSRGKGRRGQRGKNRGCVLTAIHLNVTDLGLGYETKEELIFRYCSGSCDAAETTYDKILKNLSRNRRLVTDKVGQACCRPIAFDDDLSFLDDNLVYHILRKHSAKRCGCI
In words: purification from CHO conditioned medium, Western blot and N-terminal sequencing; disulfide-bonded dimer. Here is the method: The following process describes the purification of CHO-expressed GDNF and a CHO-derived clipped GDNF homodimer, from one liter of conditioned media. Because of significant protease action in the CHO medium, clipping the chain at residue 31, the procedure may include the use of a protease inhibitor during purification.
Serum free conditioned media was made 20 mM 2-[N-Morpholino] ethane sulfonate (MES), pH 6.0, by adding one fiftieth volume of 1 M MES, pH 6.0. Twenty five milliliters of SP Sepharose Big Bead resin (Pharmacia), equilibrated with 20 mM MES, pH 6.0, was added and stirred at 4° C. for one hour. The resin was collected by allowing it to settle and decanting off the conditioned media. The decanted media was filtered through a fritted disc filter to recover any unsettled resin. […] Protein was eluted with a 300 ml gradient from A buffer to 1.0 M NaCl, 20 mM MES, pH 6.0 (B buffer), at a flow rate of 0.2 column volumes/minute with absorbance monitored at 280 nm. […] The presence of GDNF in the fractions was detected by Western blotting analysis. […]
Fractions containing GDNF from Step 2 were resolublized in one milliliter of 0.15 M NaCl, 10 mM Tris, pH 8.0, and applied to a 0.75×7.5 cm TSK-Gel 5WP high performance S column (Toso Haas). […] One minute fractions were collected with absorbance measured at 280 nm. […]
In general terms: Immunoblotting shows a protein as a band on a membrane.

B1: [Arg32-Ile134] truncated GDNF protein, CHO cell-derived (ligand)
chain: RGQRGKNRGCVLTAIHLNVTDLGLGYETKEELIFRYCSGSCDAAETTYDKILKNLSRNRRLVTDKVGQACCRPIAFDDDLSFLDDNLVYHILRKHSAKRCGCI
modifications: glycosylated (N-linked and O-linked sugars)
notes: It forms a disulfide-bonded homodimer (36 kDa) or a heterodimer with mature GDNF (40 kDa); A later purification also found a [Lys37-Ile134] form; also called clipped GDNF; 18 kDa band
Consider B1, for which the binding result is reported as “binds”.
